According to paper PMC11728977, “Crystallographic, kinetic, and calorimetric investigation of PKA interactions with L-type calcium channels and Rad GTPase” (The Journal of Biological Chemistry, 2024):
Blank lines part the entries; values can stand above or below the binder they belong to.

Target: catalytic subunit of PKA, isoform alpha, residues 16-351 (PKAcα_(16-351)), preparation for ITC (mouse, UniProt P05132-1 16-351)
Test: ITC; peptide or substrate (1.25 to 4.3 mM) titrated into the cell containing PKAc (149 to 204 μM); 4 °C; 50 mM Hepes (pH 7.4), 150 mM KCl, 5 mM MgCl2, 2 mM TCEP; 0.5 mM AMP-PNP in both solutions
Settings: both partners purified

- Kd: 126 µM
- dH: -17 kJ/mol
- stoichiometry N: 0.98
B1: Rad Ser272 peptide (peptide)
peptide: ARRQAGTRRRESLGK
notes: Rad GTPase C-terminal tail, residues 261-275 around Ser272; also called Rad S272 peptide; S272 peptide; source: synthetic peptide

- Kd: 460 µM
- dH: -10.9 kJ/mol
- stoichiometry N: 0.83
B6: Rad Ser25 peptide (peptide)
peptide: GAGRERDRRRGSTPW
notes: Rad GTPase N-terminal tail, residues 14-28 around Ser25; also called Rad S25 peptide; source: synthetic peptide

Second part, the binder before the results:

B2: CaV1.2 Ser1981 peptide (peptide)
peptide: RGFLRSASLGRRASFHL
notes: human CaV1.2 (α1c subunit) C-terminal tail, residues 1968-1984 around the PKA site Ser1981; also called S1981 peptide; CaV1.2 S1981 peptide; source: synthetic peptide
- Kd: 34 µM
- dH: 13 kJ/mol
- stoichiometry N: 0.98

B3: CaV1.2 Ser1981 peptide S1975R (peptide)
peptide: RGFLRSARLGRRASFHL
notes: also called S1975R peptide; S1981 (S1975R); source: synthetic peptide
- Kd: 532 µM
- dH: 14 kJ/mol
- stoichiometry N: 1.08

B4: CaV1.2 Ser1981 peptide L1971A (peptide)
peptide: RGFARSASLGRRASFHL
notes: also called L1971A peptide; S1981 (L1971A); source: synthetic peptide
- Kd: 18 µM
- dH: 11 kJ/mol
- stoichiometry N: 1.06

B5: CaV1.2 Ser1981 peptide F1982A (peptide)
peptide: RGFLRSASLGRRASAHL
notes: human CaV1.2 residues 1968-1984 with F1982A (P+1 position); also called F1982A peptide; S1981 (F1982A); source: synthetic peptide
- Kd: 147 µM
- dH: 10.3 kJ/mol
- stoichiometry N: 0.99
